In the supplement of paper PMC10126150:
± gives the standard deviation of the averaged measurements.

Tested on: ATP
Assay: switch fluorescence ratio, 500 uM ATP over buffer (Cy3 cluster intensity, sum of 5 cycles each) (fold (ratio)); higher = stronger signal-on switching upon ATP binding; sequences stand for … in TCGTCGGCAGCGTCAGATGTGTATAAGAGACAGTTTTTTTTTTTTTTTTTTTTTTTTT…TC
Conditions: aptamer strand: ATP DNA aptamer (quencher-CACCTGGGGGAGTATTGCGGAGGAAGG + anchor), 100 nM annealed; ATP concentration: 500 uM
How it was run: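 Between each of five buffer/ATP cycles, the flow-cell was stripped with NaOH and re-annealed. Each cycle imaged Cy3-labelled switching-strand clusters, annealed to 100 nM quencher-labelled ATP aptamer on a modified Illumina MiSeq flow-cell, first in selection buffer and then after 15 min with 500 uM ATP at 22 °C. The fluorescence ratio is summed target-cycle over summed buffer-cycle Cy3 intensity per cluster, averaged per switch-domain sequence, with clusters outside 100-1000 RFU excluded.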
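Note: ATP exposure 15 min at 22 °C before imaging.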

Sequence | switch fluorescence ratio
AAGCTACGTG | 1.05 ± 0.013
AAGCTATCGG | 0.994 ± 0.016
AAGCTCCTTT | 0.968 ± 0.011
AAGCTCTGAG | 1.03 ± 0.017
AAGCTCTTGT | 1.01 ± 0.03
AAGCTGTAGC | 1.03 ± 0.048
AAGGAAAAGT | 1.01 ± 0.035
AAGGAAAATT | 0.973 ± 0.02
AAGGAAAGGT | 1.061 ± 0.0073
AAGGAAATGT | 1 ± 0.014
AAGGAAATTA | 1.01 ± 0.058
AAGGAACGGC | 0.963 ± 0.043
AAGGAAGCTT | 1.02 ± 0.1
AAGGAATACA | 1.07 ± 0.041
AAGGAGGCAA | 1.255 ± 0.0085
AAGGAGGGAC | 0.982 ± 0.011
AAGGAGGGGA | 0.978 ± 0.02
AAGGAGGGTT | 0.984 ± 0.025
AAGGAGGTCC | 0.97 ± 0.066
AAGGAGGTTT | 1.01 ± 0.031
AAGGAGTCGG | 0.987 ± 0.044
AAGGATAGTT | 1.01 ± 0.013
AAGGATCTAC | 1.01 ± 0.027
AAGGATCTGG | 0.977 ± 0.026
AAGGATGGTG | 0.957 ± 0.069
AAGGCAAAAT | 1.04 ± 0.029

Sequence | switch fluorescence ratio
AAGGCATGAT | 1.0128 ± 0.00018
AAGGCCCCGT | 1.02 ± 0.016
AAGGCCGGCG | 1.01 ± 0.017
AAGGCCTTGA | 0.988 ± 0.049
AAGGCGAGGG | 1.01 ± 0.015
AAGGCGGCAC | 1.05 ± 0.02
AAGGCGGGGG | 0.986 ± 0.016
AAGGCGTAG | 0.984 ± 0.1
AAGGCTAATG | 0.953 ± 0.011
AAGGCTTAAT | 1.006 ± 0.0063
AAGGGAATGG | 1.04 ± 0.046
AAGGGAGAGC | 1.03 ± 0.06
AAGGGAGAGG | 0.985 ± 0.013
AAGGGAGGAA | 1.02 ± 0.012
AAGGGATTAG | 1.01 ± 0.037
AAGGGATTTT | 0.999 ± 0.062
AAGGGCAGTT | 0.97609 ± 0.00084
AAGGGCATTA | 0.9891 ± 0.0096
AAGGGCGGGG | 1.01 ± 0.019
AAGGGGAATC | 1.01 ± 0.024
AAGGGGACGG | 1 ± 0.03
AAGGGGACTC | 0.974 ± 0.04
AAGGGGATAA | 0.99 ± 0.045
AAGGGGATGT | 1.03 ± 0.032
AAGGGGATTC | 1.07 ± 0.012
AAGGGGCACA | 1.0522 ± 0.00079

Sequence | switch fluorescence ratio
AAGGGGCATG | 1.001 ± 0.0025
AAGGGGCGGA | 0.97 ± 0.016
AAGGGGGTAT | 0.999 ± 0.043
AAGGGGTACA | 1.01 ± 0.02
AAGGGGTCGG | 1 ± 0.036
AAGGGGTCT | 0.992 ± 0.024
AAGGGGTTAA | 1.03 ± 0.022
AAGGGGTTTG | 0.969 ± 0.032
AAGGGTAAGT | 1.005 ± 0.0023
AAGGGTAATG | 0.9875 ± 0.0042
AAGGGTACCT | 1.018 ± 0.0077
AAGGGTCAGG | 1.02 ± 0.017
AAGGGTCCCG | 0.9735 ± 0.0027
AAGGGTCGCA | 1.03 ± 0.036
AAGGGTCTAA | 0.978 ± 0.037
AAGGGTGCTT | 1.018 ± 0.006
AAGGGTGTTG | 1.01 ± 0.017
AAGGGTTATT | 1.15 ± 0.16
AAGGGTTCAC | 0.9963 ± 0.0031
AAGGGTTCCG | 1.01 ± 0.047
AAGGGTTCGG | 1.03 ± 0.026
AAGGGTTGG | 0.99 ± 0.015
AAGGGTTGGT | 0.991 ± 0.028
AAGGTAACAA | 1.01 ± 0.051
AAGGTCACGC | 1.01 ± 0.024
AAGGTCAGCT | 0.991 ± 0.016

Sequence | switch fluorescence ratio
AAGGTCGCTG | 0.9861 ± 0.00072
AAGGTCGGCC | 0.966 ± 0.017
AAGGTCGTTT | 0.9768 ± 0.003
AAGGTCTAAC | 1.012 ± 0.0067
AAGGTCTGTG | 0.993 ± 0.014
AAGGTGGAAG | 1.003 ± 0.0046
AAGGTGGATA | 1.11 ± 0.032
AAGGTGGTGG | 1.04 ± 0.0016
AAGGTTACGT | 1.022 ± 0.0072
AAGGTTAGTA | 0.9924 ± 0.007
AAGGTTCATA | 1.01 ± 0.044
AAGGTTCTAG | 0.9895 ± 0.0026
AAGGTTGAGG | 0.973 ± 0.034
AAGGTTGGG | 0.989 ± 0.014
AAGGTTGGGA | 0.962 ± 0.039
AAGGTTTAAA | 0.982 ± 0.032
AAGGTTTCC | 1 ± 0.049
AAGGTTTTGG | 1.15 ± 0.24
AAGTAGACTG | 0.996 ± 0.11
AAGTAGGTGC | 1.13 ± 0.02
AAGTAGTGGT | 0.979 ± 0.025
AAGTATAATA | 1.01 ± 0.035
AAGTATCGTT | 0.999 ± 0.011
AAGTATGTCT | 1 ± 0.039
AAGTATTGTT | 1 ± 0.019
AAGTCAAGTA | 0.9581 ± 0.0054

Sequence | switch fluorescence ratio
AAGTCGGGGC | 1 ± 0.038
AAGTCTGTCT | 0.998 ± 0.054
AAGTCTTTGG | 0.9599 ± 0.0072
AAGTGAAGTT | 1.002 ± 0.004
AAGTGAATTA | 1.0037 ± 0.00073
AAGTGACAGG | 1 ± 0.022
AAGTGATTGT | 0.994 ± 0.028
AAGTGCAAGC | 1.04 ± 0.027
AAGTGCACGG | 1 ± 0.036
AAGTGGAAAT | 0.9962 ± 0.0019
AAGTGGAATG | 1.02 ± 0.03
AAGTGGGAAC | 1.02 ± 0.016
AAGTGGGCCC | 0.983 ± 0.013
AAGTGGGCTG | 0.981 ± 0.023
AAGTGGGGAG | 1 ± 0.024
AAGTGGGTCG | 0.9408 ± 0.0023
AAGTGGGTGG | 1.02 ± 0.021
AAGTGGTAAG | 0.996 ± 0.034
AAGTGGTACA | 0.968 ± 0.049
AAGTGTAAAA | 1 ± 0.038
AAGTGTCAGT | 0.977 ± 0.065
AAGTGTCATT | 0.9999 ± 0.0028
AAGTGTGCCT | 0.983 ± 0.01
AAGTGTGGGG | 1 ± 0.025
AAGTGTGGTA | 0.991 ± 0.018
AAGTGTGTTC | 0.999 ± 0.016

Sequence | switch fluorescence ratio
AAGTGTGTTT | 1 ± 0.031
AAGTGTTAGC | 0.995 ± 0.022
AAGTTAAGGC | 1.02 ± 0.013
AAGTTAAGGT | 1.005 ± 0.002
AAGTTAGGGT | 0.999 ± 0.021
AAGTTAGTGG | 1.01 ± 0.04
AAGTTATATG | 0.987 ± 0.0099
AAGTTATGGG | 1 ± 0.023
AAGTTCATAT | 0.965 ± 0.015
AAGTTGAAAA | 1.004 ± 0.0028
AAGTTGAATA | 0.985 ± 0.021
AAGTTGATGC | 1.011 ± 0.0027
AAGTTGCAGC | 1 ± 0.025
AAGTTGCTGT | 1.02 ± 0.063
AAGTTGGCAT | 0.977 ± 0.04
AAGTTGGGCA | 0.969 ± 0.039
AAGTTGGGTG | 1 ± 0.025
AAGTTGGTTA | 0.991 ± 0.026
AAGTTGTAAT | 1.014 ± 0.0013
AAGTTGTGCG | 0.986 ± 0.029
AAGTTGTTGA | 1 ± 0.028
AAGTTTAAAT | 0.999 ± 0.02
AAGTTTAAGT | 0.989 ± 0.013
